Literature values, collected in US10753947B2, “Methods for screening voltage-gated proteins” (D.E. Shaw Research, LLC, priority 2012, dated 2020).
Positions count from the first letter of the chain named.

Experiments:
[1] = target: Kv1.1 (Homo sapiens, UniProt Q09470); conditions: Table 5; read-out: IC50, channel Kv1.1; cited from earlier work
[2] = target: T1, Kv2.1 T359S K360G A366D S367A I383M Y384T K386V (Homo sapiens, UniProt Q14721, A366D/I383M/K360G/K386V/S367A/T359S/Y384T); conditions: Table 5; read-out: IC50, channel Kv2.1 T359S K360G A366D S367A I383M Y384T K386V; cited from earlier work
T1 sequence (Q14721 1-858 T359S/K360G/A366D/S367A/I383M/Y384T/K386V): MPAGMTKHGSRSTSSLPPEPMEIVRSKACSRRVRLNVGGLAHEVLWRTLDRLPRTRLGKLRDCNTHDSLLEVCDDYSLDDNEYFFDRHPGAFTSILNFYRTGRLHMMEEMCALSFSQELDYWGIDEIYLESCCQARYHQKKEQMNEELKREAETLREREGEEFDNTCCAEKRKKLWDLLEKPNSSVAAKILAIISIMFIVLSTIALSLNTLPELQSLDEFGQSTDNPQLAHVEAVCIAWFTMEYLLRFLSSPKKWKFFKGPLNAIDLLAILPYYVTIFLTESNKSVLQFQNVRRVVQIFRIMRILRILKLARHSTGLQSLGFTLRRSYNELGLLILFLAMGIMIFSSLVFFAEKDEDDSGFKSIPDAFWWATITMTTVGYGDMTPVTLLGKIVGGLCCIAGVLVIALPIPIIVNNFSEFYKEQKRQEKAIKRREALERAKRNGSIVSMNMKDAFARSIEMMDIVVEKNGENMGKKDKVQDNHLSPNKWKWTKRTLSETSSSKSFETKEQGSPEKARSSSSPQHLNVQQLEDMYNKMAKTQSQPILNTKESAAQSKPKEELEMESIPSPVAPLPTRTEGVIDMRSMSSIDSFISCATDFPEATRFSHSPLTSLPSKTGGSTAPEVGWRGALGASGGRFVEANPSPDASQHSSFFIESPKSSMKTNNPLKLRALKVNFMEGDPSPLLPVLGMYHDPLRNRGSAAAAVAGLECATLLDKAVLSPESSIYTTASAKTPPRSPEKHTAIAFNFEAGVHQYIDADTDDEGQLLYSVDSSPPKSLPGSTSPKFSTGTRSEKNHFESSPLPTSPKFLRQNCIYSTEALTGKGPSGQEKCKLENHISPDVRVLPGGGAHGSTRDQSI

[3] = target: Kv1.2 (Homo sapiens, UniProt P16389); conditions: Table 5; result in words; cited from earlier work
[4] = target: T2, Kv2.1 channel in pancreatic β-cells (Homo sapiens, UniProt Q14721); conditions: cited from earlier work
T2 construct: host or cells: pancreatic β-cells (endogenous channel)
T2 sequence (Q14721 1-858): T1 sequence (Q14721 1-858 T359S/K360G/A366D/S367A/I383M/Y384T/K386V) with S359T, G360K, D366A, A367S, M383I, T384Y, V386K

Kv1.1, sequence (Q09470 whole entry): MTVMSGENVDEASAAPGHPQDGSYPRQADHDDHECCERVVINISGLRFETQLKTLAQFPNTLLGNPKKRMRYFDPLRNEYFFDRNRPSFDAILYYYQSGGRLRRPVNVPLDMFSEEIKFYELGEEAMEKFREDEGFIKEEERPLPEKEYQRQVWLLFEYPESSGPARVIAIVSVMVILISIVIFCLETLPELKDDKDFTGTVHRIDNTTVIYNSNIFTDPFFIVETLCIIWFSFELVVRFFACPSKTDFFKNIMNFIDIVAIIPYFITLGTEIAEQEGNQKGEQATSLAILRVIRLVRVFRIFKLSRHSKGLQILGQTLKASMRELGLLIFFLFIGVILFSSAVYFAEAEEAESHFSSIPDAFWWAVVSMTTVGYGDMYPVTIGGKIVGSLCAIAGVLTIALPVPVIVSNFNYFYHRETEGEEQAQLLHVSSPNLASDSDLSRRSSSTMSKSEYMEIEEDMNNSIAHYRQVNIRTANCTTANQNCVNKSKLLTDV
Kv1.2, sequence (P16389 whole entry): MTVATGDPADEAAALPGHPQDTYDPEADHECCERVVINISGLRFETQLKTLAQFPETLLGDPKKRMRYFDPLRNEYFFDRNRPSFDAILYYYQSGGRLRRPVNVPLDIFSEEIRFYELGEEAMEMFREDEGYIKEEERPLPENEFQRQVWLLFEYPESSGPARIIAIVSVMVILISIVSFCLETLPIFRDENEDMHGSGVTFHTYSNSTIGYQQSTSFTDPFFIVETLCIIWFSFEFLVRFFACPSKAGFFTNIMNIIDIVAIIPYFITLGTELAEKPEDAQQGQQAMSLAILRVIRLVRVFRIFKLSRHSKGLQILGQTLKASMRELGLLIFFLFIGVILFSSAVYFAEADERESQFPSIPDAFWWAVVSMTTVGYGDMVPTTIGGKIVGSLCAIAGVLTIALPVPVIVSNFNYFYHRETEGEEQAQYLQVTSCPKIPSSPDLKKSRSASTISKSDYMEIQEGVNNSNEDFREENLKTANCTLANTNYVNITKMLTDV

Substance: Agitotoxin-2 (GVPINVSCTGSPQCIKPCKDAGMRFGKCMNRKCHCTPK) [AgTx2]
- IC50 [1]: 0.044 nM
- IC50 [2]: 0.007 nM

Substance: Guangxitoxin (EGECGGFWWKCGSGKPACCPKYVCSPKWGLCNFPMP) [GxTx-1E]
- IC50, channel Kv1.2 [3]: No effect
- IC50 [2]: ~2 nM
- Inhibits the Kv2.1 channel in pancreatic β-cells [4]: nanomolar range
